Measured values reported in US20200172904A1 (MIT, published 2020).

Molecular target: FMR1 (mouse, UniProt P35922 1-614)
Test: co-IP of Mena from E15.5 mouse brain lysates, western blot
Protocol: Collected lysates were cleared by centrifugation for 20 minutes 14k rpm at 4° C., and incubated overnight at 4° C. with antibodies on magnetic protein G beads (incubated in PBS for 4 hours at 4° C. After IP, beads were washed three times with lysis buffer containing 0.4% NP40, and boiled in 2× sodium dodecyl sulfate (SDS) sample buffer for loading onto an acrylamide gel either for western blotting or for Mass Spectrometry.
Mass spectrometry was performed after immunoprecipitation (IP) of Mena from lysates of E15.5 mouse brains from Mena-wild type and Mena-deficient animals. […] To verify the specificity of these interactions, co-IP experiments from E15.5 mouse brains was performed using Mena-deficient brain lysates or isotype-specific antibodies as negative controls.

binding result: no binding
B1: Mouse Mena/ENAH (Protein enabled homolog) (other)
chain: MSEQSICQARAAVMVYDDANKKWVPAGGSTGFSRVHIYHHTGNNTFRVVGRKIQDHQVVINCAIPKGLKYNQATQTFHQWRDARQVYGLNFGSKEDANVFASAMMHALEVLNSQEAAQSKVTATQDSTNLRCIFCGPTLPRQNSQLPAQVQNGPSQEELEIQRRQLQEQQRQKELERERMERERLERERLERERLERERLEQEQLERQRQEREHVERLERERLERLERERQERERERLEQLEREQVEWERERRMSNAAPSSDSSLSSAPLPEYSSCQPPSAPPPSYAKVISAPVSDATPDYAVVTALPPTSTPPTPPLRHAATRFATSLGSAFHPVLPHYATVPRPLNKNSRPSSPVNTPSSQPPAAKSCAWPTSNFSPLPPSPPIMISSPPGKATGPRPVLPVCVSSPVPQMPPSPTAPNGSLDSVTYPVSPPPTSGPAAPPPPPPPPPPPPPPPLPPPPLPPLASLSHCGSQASPPPGTPLASTPSSKPSVLPSPSAGAPASAETPLNPELGDSSASEPGLQAASQPAESPTPQGLVLGPPAPPPPPPLPSGPAYASALPPPPGPPPPPPLPSTGPPPPPPPPPPLPNQAPPPPPPPPAPPLPASGIFSGSTSEDNRPLTGLAAAIAGAKLRKVSRVEDGSFPGGGNTGSVSLASSKADAGRGNGPLPLGGSGLMEEMSALLARRRRIAEKGSTIETEQKEDRNEDAEPITAKAPSTSTPEPTRKPWERTNTMNGSKSPVISRPKSTPSSQPSANGVQTEGLDYDRLKQDILDEMRKELAKLKEELIDAIRQELSKSNTA
notes: Endogenous Mena from E15.5 mouse brain lysates, cultured mouse cortical neurons, N2A cells or MEFs
